Article doi:10.1101/2023.09.29.560207 (bioRxiv, 2023)

B1: His-MBP-RGNEF^1–275 (domain or fragment, human, UniProt Q8N1W1 1-275, looked up)
chain: MELSCSEAPLYGQMMIYAKFDKNVYLPEDAEFYFTYDGSHQRHVMIAERIEDNVLQSSVPGHGLQETVTVSVCLCSEGYSPVTMGSGSVTYVDNMACRLARLLVTQANRLTACSHQTLLTPFALTAGALPALDEELVLALTHLELPLEWTVLGSSSLEVSSHRESLLHLAMRWGLAKLSQFFLCLPGGVQALALPNEEGATPLDLALREGHSKLVEDVTNFQGRWSPSFSRVQLSEEASLHYIHSSETLTLTLNHTAEHLLEADIKLFRKYFWDR

Experiments:
[1] = molecular target: B1; test: SPR
[2] = molecular target: His-GST-TDP-43^wt (human, UniProt Q13148 1-414); test: SPR
Sequence of His-GST-TDP-43^wt (Q13148 whole entry): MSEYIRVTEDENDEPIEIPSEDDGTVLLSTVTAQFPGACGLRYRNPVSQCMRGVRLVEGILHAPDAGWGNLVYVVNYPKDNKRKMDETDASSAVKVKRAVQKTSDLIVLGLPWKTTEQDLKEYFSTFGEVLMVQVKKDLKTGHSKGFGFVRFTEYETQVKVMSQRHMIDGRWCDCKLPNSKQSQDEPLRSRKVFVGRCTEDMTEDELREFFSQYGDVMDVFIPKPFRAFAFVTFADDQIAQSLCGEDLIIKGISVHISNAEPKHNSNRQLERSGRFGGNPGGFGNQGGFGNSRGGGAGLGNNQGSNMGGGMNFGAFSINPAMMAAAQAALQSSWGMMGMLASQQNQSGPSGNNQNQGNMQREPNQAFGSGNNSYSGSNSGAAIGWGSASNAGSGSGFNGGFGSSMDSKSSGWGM

## His-TDP-43^1–296 (from UniProt Q13148 1-261) (domain or fragment)
[1]
  Kd: 4110 nM

## B1
[2]
  Kd: 1780 nM

B2: His-RRM-1 (domain or fragment, human, UniProt Q13148 101-191, looked up)
chain: QKTSDLIVLGLPWKTTEQDLKEYFSTFGEVLMVQVKKDLKTGHSKGFGFVRFTEYETQVKVMSQRHMIDGRWCDCKLPNSKQSQDEPLRSR
[1]
  binding result: binds
